Molecular target: T1, rProtein A Sepharose FF (Staphylococcus aureus, UniProt P38507 37-327)
T1 construct: the protein ligand is immobilized on agarose beads; also called rProtein A Sepharose 4 FF
Assay: microtiter plate column chromatography, Bradford assay; Bound (%)

B1: Bevacizumab Fab fragment (Fab, V domains shown)
VH: EVQLVESGGGLVQPGGSLRLSCAASGYTFTNYGMNWVRQAPGKGLEWVGWINTYTGEPTYAADFKRRFTFSLDTSKSTAYLQMNSLRAEDTAVYYCAKYPHYYGSSHWYFDVWGQGTLVTVSS
VL: DIQMTQSPSSLSASVGDRVTITCSASQDISNYLNWYQQKPGKAPKVLIYFTSSLHSGVPSRFSGSGSGTDFTLTISSLQPEDFATYYCQQYSTVPWTFGQGTKVEIKR
notes: also called Fab fragments
Question: Does B1 bind?
Answer: Result: no binding
